Ends that are not written are not given here.
Experiments:
Immunoglobulin G (IgG) = experiment: Purification from Effluent II+III, IgG mass balance; type: binding, human; conditions: 1 ml Eff. II+III, 4° C.
Protocol: (§1) Sequences 1-11 and 15 were assayed with Effluent II+III (Eff. II+III). Eff. II+III is a process intermediate in the Cohn plasma fractionation process. The feed stream contains 20% (by volume) ethanol, 20-25 mg/ml hSA and approximately 1 mg/ml AlPI. The stream also contains other proteins including anti-thrombin III (AT3), immunoglobin G (IgG), immunoglobin A (IgA), apolipoprotein alpha-1 (Apo A-1), transferrin (Trf), haptoglobin (Hpt), and alpha-1 acid glycoprotein (AAG) at concentrations ranging from 0.1-1 mg/ml.
(§2) The columns were assayed using the same technique as the hSA+AlPI experiments, allowing for a 10 minute residence time followed by a constant flow rate of 865 μl/min with step elutions of 1M NaCl, 3M NaCl, and 2% acetic acid. All experiments were conducted at 4° C. The mass balances for the injection of 1 ml Eff. […] The AlPI was enriched from 3% of the total protein in the feed to upwards of 50% in the acid eluate.

Immunoglobulin A (IgA) = experiment: Purification from Effluent II+III, IgA mass balance; type: binding, human; conditions: 1 ml Eff. II+III, 4° C.
Protocol: as §1, §2

A1PI [1] = molecular target: T1, A1PI (Homo sapiens, UniProt P01009); experiment: A1PI purification from 5 mg hSA + 1 mg A1PI on peptide column, A1PI mass balance; type: binding; conditions: A1PI, 5 mg hSA + 1 mg A1PI, 4° C.
T1 construct: Human plasma is currently the only approved source of therapeutic AlPI
Protocol: Confirmatory binding assays were performed in a column chromatographic format on a microbore HPLC using individual peptide sequences synthesized directly onto the Toyopearl 650 M Chelate resin which had been modified with Totda followed by an alanine residue (A-Totda-Toyopearl), at a final substitution density of 0.1 mmole/g resin. The resin was packed into 0.4×5 cm columns (Thomson, Springfield, Va.) and tested on the Michrom HPLC system (Michrom BioResources, Auburn, Calif.). The elution program for all trials utilized the following method. The column was pre-equilibrated with equilibration buffer (as above). 1 ml of sample was injected and allowed sufficient time to flowthrough the column using equilibration buffer. The column was then washed with step elutions of 1M NaCl and 3M NaCl in equilibration buffer. The column was exposed to equilibration buffer with 0.1M NaCl. Any remaining protein was eluted with elution buffer (2% by volume glacial acetic acid in water).
A Gilson FC204 fraction collector at the HPLC outlet collected individual eluates for further analysis. Fractions collected from the 2% acetic acid eluates were neutralized with 2M Tris, pH 10.5 to bring the pH to neutrality. The protein samples were reconstituted in equilibration buffer unless otherwise stated. The samples were analyzed by the integration of the absorbance at 280 nm or by immunonephelometry. The specific method of determination is presented for each figure.
Columns were assayed with a mixture of 5 mg human serum albumin (hSA)+1 mg AlPI at 4° C. (Table 4, Seq. ID 1-11, 15, 17) and 20° C. (Table 5, Seq. ID 1-10, 13, 15, 17). The chromatography method was modified to provide for a 10 minute residence time of sample in the column by decreasing the flow to 17 μl/min (10 cm/hr) upon injection. Following the incubation, the flow was set at 865 μl/min (413 cm/hr) for the step elutions of 1M NaCl, 3M NaCl, and 2% acetic acid. The mass balances presented are based upon immunonephelometry. The Percent Eluted value is protein-specific and based on the amount of the protein eluted in a […]

A1PI [2] = molecular target: T1, A1PI; experiment: Purification of A1PI from Effluent II+III on peptide column, A1PI mass balance; type: binding; conditions: A1PI, 1 ml Eff. II+III, 4° C.
Protocol: as §1, §2

A1PI [3] = molecular target: T1, A1PI; experiment: A1PI binding on peptide-resin column, injection of 1 mg A1PI in equilibration buffer; conditions: 1 mg A1PI in equilibration buffer
Outline: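 Percent of total eluted A1PI per fraction (flowthrough, NaCl steps, 2% acetic acid) determined by A280 integration or immunonephelometry. Columns of peptide-derivatized A-Totda-Toyopearl resin (0.1 mmole/g) received 1 mg A1PI at 4 °C or 20 °C, flow 865 or 523 μl/min.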

[4] = molecular target: T2, apolipoprotein alpha-1 (Apo A-1) (Homo sapiens, UniProt P02647); experiment: Purification from Effluent II+III, Apo A-1 mass balance; type: binding; conditions: 1 ml Eff. II+III, 4° C.
T2 construct: Eff; II+III is a process intermediate in the Cohn plasma fractionation process; tissue Bayer Corporation (Clayton, N.C.); host or cells: plasma fraction: Cohn Effluent II+III
Protocol: as §1, §2

[5] = * as in Tables 4, 5 (below detection limit)

T1 sequence (P01009 25-418): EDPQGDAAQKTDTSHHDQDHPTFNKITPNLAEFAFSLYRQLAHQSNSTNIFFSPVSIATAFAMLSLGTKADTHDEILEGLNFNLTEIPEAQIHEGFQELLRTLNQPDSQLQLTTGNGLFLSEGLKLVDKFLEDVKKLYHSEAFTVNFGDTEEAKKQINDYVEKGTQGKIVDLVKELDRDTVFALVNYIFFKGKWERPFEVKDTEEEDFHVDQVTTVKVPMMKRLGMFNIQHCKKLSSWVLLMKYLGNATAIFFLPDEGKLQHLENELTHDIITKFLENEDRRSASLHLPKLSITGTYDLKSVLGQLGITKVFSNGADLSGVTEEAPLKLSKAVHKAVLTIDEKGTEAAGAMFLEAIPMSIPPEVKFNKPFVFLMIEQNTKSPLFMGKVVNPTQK
T2 sequence (P02647 19-267): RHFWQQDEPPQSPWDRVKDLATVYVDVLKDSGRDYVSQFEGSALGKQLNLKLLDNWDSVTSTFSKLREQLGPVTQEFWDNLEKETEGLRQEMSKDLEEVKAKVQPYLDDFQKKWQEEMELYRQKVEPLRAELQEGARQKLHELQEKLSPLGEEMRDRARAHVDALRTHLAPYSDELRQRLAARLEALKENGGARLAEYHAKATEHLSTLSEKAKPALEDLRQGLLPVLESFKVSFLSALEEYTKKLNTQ

- Mass Protein per Eluate Fraction, 1M NaCl (A1PI [1]; * Below detection limit): 0.35 mg
- Mass Protein per Eluate Fraction, 2% Ac. Acid (A1PI [1]; * Below detection limit): 0.35 mg
- Mass Protein per Eluate Fraction, Flow (A1PI [1]; * Below detection limit): 0.06 mg
- Percent Eluted by Fraction, 1M NaCl (A1PI [1]; relative to total eluted): 46%
- Percent Eluted by Fraction, 2% Ac. Acid (A1PI [1]; relative to total eluted): 46%
- Percent Eluted by Fraction, 3M NaCl (A1PI [1]; relative to total eluted): 0%
- Percent Eluted by Fraction, Flow (A1PI [1]; relative to total eluted): 7%
- Percent Eluted by Fraction, 1M NaCl (A1PI [2]): 6%
- Percent Eluted by Fraction, 2% Acetic Acid (A1PI [2]): 75%
- Percent Eluted by Fraction, 3M NaCl (A1PI [2]): 0%
- Percent Eluted by Fraction, Flow (A1PI [2]): 20%
- Mass Protein per Eluate Fraction, 1M NaCl (A1PI [2]; [5]): 0.06 mg
- Mass Protein per Eluate Fraction, 2% Acetic Acid (A1PI [2]; [5]): 0.80 mg
- Mass Protein per Eluate Fraction, Flow (A1PI [2]; [5]): 0.21 mg
- Percent A1PI Eluted by Fraction Based on Absorbance at 280 nm, 1M NaCl (A1PI [3]; 4° C.): 74%
- Percent A1PI Eluted by Fraction Based on Absorbance at 280 nm, 2% Acetic Acid (A1PI [3]; 4° C.): 26%
- Percent A1PI Eluted by Fraction Based on Absorbance at 280 nm, Flowthrough (A1PI [3]; 4° C.): 0%
- Percent A1PI Eluted by Fraction, 1M NaCl (A1PI [3]; 20° C.): 0%
- Percent A1PI Eluted by Fraction, 2% Acetic Acid (A1PI [3]; 20° C.): 4%
- Percent A1PI Eluted by Fraction, Flowthrough (A1PI [3]; 20° C.): 96%
- Percent Eluted by Fraction, 1M NaCl [4]: 0%
- Percent Eluted by Fraction, 2% Acetic Acid [4]: 0%
- Percent Eluted by Fraction, 3M NaCl [4]: 0%
- Percent Eluted by Fraction, Flow [4]: 0%
Substance: QYHFWY
- Percent Eluted by Fraction, 1M NaCl (Immunoglobulin G (IgG)): 10%
- Percent Eluted by Fraction, 2% Acetic Acid (Immunoglobulin G (IgG)): 0%
- Percent Eluted by Fraction, 3M NaCl (Immunoglobulin G (IgG)): 0%
- Percent Eluted by Fraction, Flow (Immunoglobulin G (IgG)): 90%
- Mass Protein per Eluate Fraction, 1M NaCl (Immunoglobulin G (IgG); [5]): 0.02 mg
- Mass Protein per Eluate Fraction, Flow (Immunoglobulin G (IgG); [5]): 0.21 mg
- Percent Eluted by Fraction, 1M NaCl (Immunoglobulin A (IgA)): 31%
- Percent Eluted by Fraction, 2% Acetic Acid (Immunoglobulin A (IgA)): 38%
- Percent Eluted by Fraction, 3M NaCl (Immunoglobulin A (IgA)): 0%
- Percent Eluted by Fraction, Flow (Immunoglobulin A (IgA)): 31%
- Mass Protein per Eluate Fraction, 1M NaCl (Immunoglobulin A (IgA); [5]): 0.11 mg
- Mass Protein per Eluate Fraction, 2% Acetic Acid (Immunoglobulin A (IgA); [5]): 0.13 mg
- Mass Protein per Eluate Fraction, Flow (Immunoglobulin A (IgA); [5]): 0.11 mg

— patent publication US5985836A, “Alpha-1 proteinase inhibitor binding peptides” (Bayer Corporation, priority 1998, dated 1999)
